Test results taken from IntAct's records for PubMed 29892012.

B1: Coiled-coil domain-containing protein 120 (Homo sapiens), Q96HB5-4 (parent)
chain: MRREPRYQGQVGPDIHTDSERTLSSHQPRPLDSTKMEVKGQLISSPTFNAPAALFGEAAPQVKSERLRGLLDRQRTLQEALSLKLQELRKVCLQEAELTGQLPPECPLEPGERPQLVRRRPPTARAYPPPHPNQAHHSLCPAEELALEALEREVSVQQQIAAAARRLALAPDLSTEQRRRRRQVQADALRRLHELEEQLRDVRARLGLPVLPLPQPLPLSTGSVITTQGVCLGMRLAQLSQEDVVLHSESSSLSESGASHDNEEPHGCFSLAERPSPPKAWDQLRAVSGGSPERRTPWKPPPSDLYGDLKSRRNSVASPTSPTRSLPRSASSFEGRSVPATPVLTRGAGPQLCKPEGLHSRQWSGSQDSQMGFPRADPASDRASLFVARTRRSNSSEALLVDRAAGGGAGSPPAPLAPSASGPPVCKSSEVLYERPQPTPAFSSRTAGPPDPPRAARPSSAAPASRGAPRLPPVCGDFLLDYSLDRGLPRSGGGTGWGELPPAAEVPGPLSRRDGLLTMLPGPPPVYAADSNSPLLRTKDPHTRATRTKPCGLPPEAAEGPEVHPNPLLWMPPPTRIPSAGERSGHKNLALEGLRDWYIRNSGLAAGPQRRPVLPSVGPPHPPFLHARCYEVGQALYGAPSQAPLPHSRSFTAPPVSGRYYADFLYPPELSARLSDLTLEGEQSSSSDTQTPGTLV
partner: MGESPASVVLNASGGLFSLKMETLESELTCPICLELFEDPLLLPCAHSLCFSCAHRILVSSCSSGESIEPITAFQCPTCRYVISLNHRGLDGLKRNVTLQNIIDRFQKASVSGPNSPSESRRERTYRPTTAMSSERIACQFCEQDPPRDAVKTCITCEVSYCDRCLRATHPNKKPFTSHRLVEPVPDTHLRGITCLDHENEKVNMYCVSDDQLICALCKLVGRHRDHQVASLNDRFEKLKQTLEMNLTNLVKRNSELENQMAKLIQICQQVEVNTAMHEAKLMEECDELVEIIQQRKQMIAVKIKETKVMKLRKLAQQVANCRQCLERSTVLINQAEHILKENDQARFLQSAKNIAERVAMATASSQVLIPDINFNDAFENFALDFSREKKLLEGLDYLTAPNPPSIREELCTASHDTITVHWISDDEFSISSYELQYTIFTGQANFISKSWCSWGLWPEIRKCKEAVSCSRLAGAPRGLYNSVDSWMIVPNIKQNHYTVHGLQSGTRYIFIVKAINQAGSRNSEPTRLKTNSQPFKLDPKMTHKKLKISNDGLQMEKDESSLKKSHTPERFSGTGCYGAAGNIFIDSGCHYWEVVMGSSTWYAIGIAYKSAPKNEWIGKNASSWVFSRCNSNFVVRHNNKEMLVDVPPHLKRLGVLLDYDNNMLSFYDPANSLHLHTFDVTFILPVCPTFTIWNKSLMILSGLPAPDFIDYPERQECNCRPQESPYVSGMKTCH
B2: Coiled-coil domain-containing protein 120 (Homo sapiens), Q96HB5-4 (parent)
chain: B1 chain
partner: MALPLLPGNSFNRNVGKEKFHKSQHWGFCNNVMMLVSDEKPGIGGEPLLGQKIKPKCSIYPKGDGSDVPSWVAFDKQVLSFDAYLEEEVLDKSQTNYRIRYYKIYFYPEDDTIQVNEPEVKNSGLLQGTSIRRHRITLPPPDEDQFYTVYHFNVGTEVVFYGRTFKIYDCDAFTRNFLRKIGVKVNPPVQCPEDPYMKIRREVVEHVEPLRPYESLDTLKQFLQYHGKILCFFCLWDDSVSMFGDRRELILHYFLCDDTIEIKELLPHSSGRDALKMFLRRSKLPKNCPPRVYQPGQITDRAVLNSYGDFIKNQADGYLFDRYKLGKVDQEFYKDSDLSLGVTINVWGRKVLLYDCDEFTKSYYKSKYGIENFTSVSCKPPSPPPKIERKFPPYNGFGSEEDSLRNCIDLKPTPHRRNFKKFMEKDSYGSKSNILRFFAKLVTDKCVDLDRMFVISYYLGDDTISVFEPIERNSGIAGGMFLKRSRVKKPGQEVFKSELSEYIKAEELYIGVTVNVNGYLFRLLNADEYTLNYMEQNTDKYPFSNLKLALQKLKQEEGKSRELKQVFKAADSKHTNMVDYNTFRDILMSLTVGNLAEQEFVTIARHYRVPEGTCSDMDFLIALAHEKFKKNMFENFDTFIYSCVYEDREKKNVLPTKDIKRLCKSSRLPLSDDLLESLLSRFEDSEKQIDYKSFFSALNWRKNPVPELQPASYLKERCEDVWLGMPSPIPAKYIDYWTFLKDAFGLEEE
B3: Coiled-coil domain-containing protein 120 (Homo sapiens), Q96HB5-4 (parent)
chain: B1 chain
partner: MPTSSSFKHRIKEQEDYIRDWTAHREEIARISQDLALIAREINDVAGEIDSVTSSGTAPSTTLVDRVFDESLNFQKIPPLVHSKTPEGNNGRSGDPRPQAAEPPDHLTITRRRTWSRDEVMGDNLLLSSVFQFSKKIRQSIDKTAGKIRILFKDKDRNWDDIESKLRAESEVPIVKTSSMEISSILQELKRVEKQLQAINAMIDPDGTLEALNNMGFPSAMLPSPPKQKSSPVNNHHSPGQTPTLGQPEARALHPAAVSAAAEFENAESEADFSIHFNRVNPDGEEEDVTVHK
B4: E3 ubiquitin-protein ligase RNF31 (Homo sapiens), Q96EP0 (parent)
chain: MPGEEEERAFLVAREELASALRRDSGQAFSLEQLRPLLASSLPLAARYLQLDAARLVRCNAHGEPRNYLNTLSTALNILEKYGRNLLSPQRPRYWRGVKFNNPVFRSTVDAVQGGRDVLRLYGYTEEQPDGLSFPEGQEEPDEHQVATVTLEVLLLRTELSLLLQNTHPRQQALEQLLEDKVEDDMLQLSEFDPLLREIAPGPLTTPSVPGSTPGPCFLCGSAPGTLHCPSCKQALCPACDHLFHGHPSRAHHLRQTLPGVLQGTHLSPSLPASAQPRPQSTSLLALGDSSLSSPNPASAHLPWHCAACAMLNEPWAVLCVACDRPRGCKGLGLGTEGPQGTGGLEPDLARGRWACQSCTFENEAAAVLCSICERPRLAQPPSLVVDSRDAGICLQPLQQGDALLASAQSQVWYCIHCTFCNSSPGWVCVMCNRTSSPIPAQHAPRPYASSLEKGPPKPGPPRRLSAPLPSSCGDPEKQRQDKMREEGLQLVSMIREGEAAGACPEEIFSALQYSGTEVPLQWLRSELPYVLEMVAELAGQQDPGLGAFSCQEARRAWLDRHGNLDEAVEECVRTRRRKVQELQSLGFGPEEGSLQALFQHGGDVSRALTELQRQRLEPFRQRLWDSGPEPTPSWDGPDKQSLVRRLLAVYALPSWGRAELALSLLQETPRNYELGDVVEAVRHSQDRAFLRRLLAQECAVCGWALPHNRMQALTSCECTICPDCFRQHFTIALKEKHITDMVCPACGRPDLTDDTQLLSYFSTLDIQLRESLEPDAYALFHKKLTEGVLMRDPKFLWCAQCSFGFIYEREQLEATCPQCHQTFCVRCKRQWEEQHRGRSCEDFQNWKRMNDPEYQAQGLAMYLQENGIDCPKCKFSYALARGGCMHFHCTQCRHQFCSGCYNAFYAKNKCPEPNCRVKKSLHGHHPRDCLFYLRDWTALRLQKLLQDNNVMFNTEPPAGARAVPGGGCRVIEQKEVPNGLRDEACGKETPAGYAGLCQAHYKEYLVSLINAHSLDPATLYEVEELETATERYLHVRPQPLAGEDPPAYQARLLQKLTEEVPLGQSIPRRRK
B5: E3 ubiquitin-protein ligase RNF31 (Homo sapiens), Q96EP0 (parent)
chain: B4 chain
partner: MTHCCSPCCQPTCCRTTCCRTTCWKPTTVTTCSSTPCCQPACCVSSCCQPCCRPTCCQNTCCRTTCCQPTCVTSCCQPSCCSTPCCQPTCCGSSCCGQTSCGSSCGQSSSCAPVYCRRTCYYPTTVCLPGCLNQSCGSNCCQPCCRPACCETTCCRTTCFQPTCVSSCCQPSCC

Variants of: B1
Conditions: with trim1_human MID2, Q9UJV3
For R346W, the “effect of a mutation on the interaction” value was “with no effect”.

Variants of: B2
Conditions: with efhc2_human EFHC2, Q5JST6
For R346W, the “effect of a mutation on the interaction” value was “with no effect”.

Variants of: B3
Conditions: with CEP170P1, Q96L14
R346W was tested, and the “effect of a mutation on the interaction” value was “with no effect”.

Variants of: B4
Conditions: with hoil1_human RBCK1, Q9BYM8
hoil1_human RBCK1, Q9BYM8, sequence (Q9BYM8 whole entry): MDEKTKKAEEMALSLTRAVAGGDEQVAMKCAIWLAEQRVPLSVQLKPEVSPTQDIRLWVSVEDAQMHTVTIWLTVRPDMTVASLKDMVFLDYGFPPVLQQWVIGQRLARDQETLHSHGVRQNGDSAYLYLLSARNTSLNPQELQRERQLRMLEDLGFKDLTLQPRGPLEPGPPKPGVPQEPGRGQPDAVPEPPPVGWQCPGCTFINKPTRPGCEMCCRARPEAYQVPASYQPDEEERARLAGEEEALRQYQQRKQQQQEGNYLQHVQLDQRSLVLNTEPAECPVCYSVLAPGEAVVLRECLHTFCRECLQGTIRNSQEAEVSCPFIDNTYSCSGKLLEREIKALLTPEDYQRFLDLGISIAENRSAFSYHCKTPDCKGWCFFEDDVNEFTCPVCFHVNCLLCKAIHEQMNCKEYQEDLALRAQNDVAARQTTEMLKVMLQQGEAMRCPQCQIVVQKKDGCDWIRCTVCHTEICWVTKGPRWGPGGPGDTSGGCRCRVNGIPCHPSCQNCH
With R646W the “effect of a mutation on the interaction” value was “with no effect”.

Variants of: B4
Conditions: with ccd24_human CCDC24, Q8N4L8
ccd24_human CCDC24, Q8N4L8, sequence (Q8N4L8 whole entry): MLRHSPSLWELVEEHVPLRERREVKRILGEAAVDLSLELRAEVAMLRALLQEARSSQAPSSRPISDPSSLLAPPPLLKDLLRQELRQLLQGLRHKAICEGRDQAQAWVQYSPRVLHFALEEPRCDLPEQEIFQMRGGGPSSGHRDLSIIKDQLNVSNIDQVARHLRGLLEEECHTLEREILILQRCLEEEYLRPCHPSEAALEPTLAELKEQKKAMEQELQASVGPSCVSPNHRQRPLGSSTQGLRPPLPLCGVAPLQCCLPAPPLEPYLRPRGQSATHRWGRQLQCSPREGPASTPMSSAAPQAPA
For R646W, the “effect of a mutation on the interaction” value was “with no effect”.

Variants of: B5
Conditions: with kra92_human KRTAP9-2, Q9BYQ4
For R646W, the “effect of a mutation on the interaction” value was “with no effect”.
